Assay: yeast display, Sf9 membrane polyspecificity reagent, FACS + sequencing; frameworks hold sequencing errors
Summary of the method: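 Sorting gates, low and high (top ~1%), were placed on anti-HA fluorescence to track expression and on streptavidin fluorescence to track reagent binding. A clone's polyreactivity label is taken from the gate it came out of. The reagent was 10% biotinylated, detergent-solubilized Sf9 membrane, applied for 1 hour at 4 °C to galactose-induced yeast display cells.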

Sequence: HVQLQEIGGGLVQAGDSQRLSCAASGNIFRFTDMGRYRQAPGKERELVAAINAGSTTYYAASVKGRFTISRDNAKNTVYLQMNSLKPEDTAVYYCNALYSYKYGRKYDYWGQGTQVTVSS
- polyreactivity (PSR sort gate): high polyreactivity

Sequence: QVQLVESGGGLVQAGGSLRLSCAASGRTFKVYAMGWYRPAPGKERELVAAISGSGGSTYYADSVKGRFTISRDNAKNTVYLQMNSLKPEDTAVYYCATDPSAPYTQLSSYYYWGQGTQVTVSS
- polyreactivity (PSR sort gate): low polyreactivity

Sequence: QVQLVESGGGLVQAGGSLRLSCAASGSTFVQNAMGWYRQAPGNERELVAAISRTGGSTYYADSVKGRFTISRDNAKNTVYLQMNSLKPEDTAVYYCAKRPPNYSWPKIIEFGSWGLGTQVTVSS
- polyreactivity (PSR sort gate): high polyreactivity

Sequence: QVQLVESGGGLVQAGGSLRLSSAASGRTFTYYAMGWYRQAPGTERELVAAISSGGRTDYADSVKGRFTISRDNAKNTVYLQMNSLKPEDTAVYYCNARPKVYYREYDYWGQGNQVTVSS
- polyreactivity (PSR sort gate): high polyreactivity

Sequence: QVQLVESGGGLVQAGGSLRLSCAASGYTFWQYAMGWYRQAPGKERELVATITSRGGSTYYADSVKGRFTISRDNAKNTVYLQMNSLKPEDSAVYYCNARRRYSTRRSDYWGQGTQVTVSS
- polyreactivity (PSR sort gate): high polyreactivity

Sequence: QVQLVESGGGLVQAGGSLRLSCAASGSTFSLYAMGWYRQAPGKERELVAAISKRGDDTYYADSVKGRFTISRDNAKNTVYLQMNSLKPEDTAVYYCAAEYAAYEYRYWWYDYWGQGTQVTVSS
- polyreactivity (PSR sort gate): high polyreactivity

Sequence: QVQLVESGGGLVQAGGSLRLICAASGRTLAPNAMGWYRQAPGKERELVATITRGGTTNYADSVKGRFTISRDNAKNTVYLQMNSLKPEDTAVYYCAKAHYLGYYQRYDYWGQGTQVTVSS
- polyreactivity (PSR sort gate): low polyreactivity

Sequence: QVQLVESAGGLVQAGGSLRLSCAASGFTFTYYVMGWYRQAPGKERELVAAISSGGSTYYADSVKGRFTISRDNAKNTVYLQMNSLKPEDTAVYYCAKGSGYYYRYGYWGQGTQVTVSS
- polyreactivity (PSR sort gate): high polyreactivity

Sequence: QVQLVESGGGLVQAGGSLRLSCAASGFIFWWYGMGWYRPAPGKEREFVAAITQSGSTYYADSVKGRFTISRDNAKNTVYLQMNSLKPEDTAVYYCADVVGRRLYPRYDYWGQGTQVTVSS
- polyreactivity (PSR sort gate): high polyreactivity

Sequence: QVQLVESGGGLVQAGGSLRLSCAASGIIIDSNAMGWYRQAPGKERELVADITSGGSTKYADSVKGRFTISRDNAKNTVYLQMNSLKPEDTAVYYCNADFRPADQWSYFYEMDSWGQGTQVTVSS
- polyreactivity (PSR sort gate): low polyreactivity

Sequence: QVQLVESGGGLVQAGGSLRLSCAPSGFIFIRYAMGWYRQAPGKERELVASISWRGESTYYADSVKWRFTISRDNAKNTVYLQRNILKPEDTAVYYCAATGINSGPGRMDYWGQGTQVTVSS
- polyreactivity (PSR sort gate): high polyreactivity

Sequence: QVQLVESGGGLVQAGGSLRLSCAASGFTFLVYAMGWYRQAPGKERELVAAITWSGDSTYYADSVKGRFTISRDNAKNTVYLQMNSLKPEDTAVYYCAAAYRYGTLYYYWGQGTQVTVSS
- polyreactivity (PSR sort gate): low polyreactivity

Sequence: QVQLVESGGGLVQAGGSLRLSCAASGIIFYWYAMGWYRQSPGKERELVATITSTGGSTNYADSVKGRFTISRDNAKNTVYLQMNSLKPEDTAVYYCNADRYGIYYYSRLPFDYWGQGTQVTVSS
- polyreactivity (PSR sort gate): low polyreactivity

Sequence: HVHLVESGGGLVQAGGSLRLSCAASARTFWRYAMGRKRQAPGKERELVAAISVSGGTTYYADAVKGRFTISRDNAQNTVYLQMISLKPEATAVYYCAARYWHSYGYWGQGTQVTVSS
- polyreactivity (PSR sort gate): high polyreactivity

Sequence: QVQLVESGGGKVQAGGSLRLSCAAYGIIFYPYDMGWNRQSPAKERELVAAISIGGGSTYYADSVKGRFTISRDNAKNTVYLQMNSLKPEDNAVYYCAAGTPYGILGYYYWGQGSQVTVSS
- polyreactivity (PSR sort gate): low polyreactivity

Sequence: QFQLVESGGGLVQAGGSLRLSCAATGSIFHYYAMGWYRHAPGKERELVAAINSSGGSRSYYADSVKGRFTISRDNAKNTVFLQMNSLKPVDTAVYYCAAEYRVVWRAYDYWGKGTQVTVSS
- polyreactivity (PSR sort gate): low polyreactivity

Sequence: QVQLVESGGGLVQAGGSLRLSCAASGFTFYRNAMGWYRHAPGTERELVAAISWSGDSTYYADSVKGRFTISRDNAKNTVYLQMNSLKPEDTAVYYCAKERYFYYPWVTTYTSNYWGQGTQVTVSS
- polyreactivity (PSR sort gate): low polyreactivity

Sequence: QVQLVESGGGLVQAGGSLRLSCAASGRIFQVNAMGWYRQAPGKERELVAAITYSGGTTYYADSVKGRFTISRDNAKNTVYLQMNSLKPEDTAVYYCNAEYRWPYWGQWYFKGYDYWGQGTQVTVSS
- polyreactivity (PSR sort gate): low polyreactivity

Sequence: QVQLVESGGGLVQPGGSLRLSCAASGSIFRYYAMGWYRQAPGKERELVATIRSGGSTTYADSVKGRFTISRDNAKNTVYLQMNSLKPEDTAVYYCAATYGWRFTTFPSGYASDYYWGQGTQVTVSS
- polyreactivity (PSR sort gate): high polyreactivity

Sequence: QVQLVESGGGLVQAGGSLRLSCAASGTTLGYYTMGWYRQAPGKERELVAAIDWSGGSTYYADSVKGRFTISRDNAKNTVYLQMNSLKPEDTAVYYCNAEPWDPFYSPGRGGMDYWGQGTQVNVSS
- polyreactivity (PSR sort gate): low polyreactivity

Sequence: QVQLVESGGLLVQAGGILRLSCAASGITFQYYAMGWSRQAPGKERELVAANTSSGVSTYYADSVKGRFTISRDNAKNTVYFQMNSLKPEDTAVYYCNTVVRGWSSSADDYWVQGTQVTVSS
- polyreactivity (PSR sort gate): low polyreactivity

Sequence: QDQLVESGGGLVQAGGSLRLSCAASGSTFGYYAMGWYRQAPGKERELVAAITSGASTNYADSVKGRFTISRDNAKNTVYLQMNSLKPEDTAVYYCAAGFQTRTPLNEFDYWGQGTQVTVSS
- polyreactivity (PSR sort gate): low polyreactivity

Sequence: QVQLVESGGGLVQAGGSLRLSCAASGRIFGWNAMGWYRQAPGKERELVAGISSSGGSTYYADSVKGRFTISRDNAKNTVYLQMNSLKPEDTAVYYCARRHYVGYYGYYYWGQGTQVTVSS
- polyreactivity (PSR sort gate): high polyreactivity

Sequence: QVQLVESGGGLVQAGGSLRLSCAASGRTFSGYVMGWYRQAPAKERELVAAIARNGGSRYYADSVKGRFTISRDKAKNTVYLQMNSLTPEDTAVYYCAADASCWRRHYYWGQGTQVTVSS
- polyreactivity (PSR sort gate): high polyreactivity

Sequence: QVQLVESGGGLVQAGGSLRLSCAASGSIFFWYTMGWYRQAPGKERELVATITGSGSSTTYADSVKGRFTISRDYAKNTVYLQMNSLKPEDTAVYYCAAADIIDHSFPYDYWGQGTQVTVSS
- polyreactivity (PSR sort gate): low polyreactivity

Sequence: QVQLVESGGGLVQAGGSLRLSCAASGRTFLGYAMGWYRQAPGKERELVAAINRSGGRTYYADSVKGRFTISRDNAKNTVYLQMNSMKQEDTSVYYCAAYTSYSAYDYWGQGTQVTVSS
- polyreactivity (PSR sort gate): high polyreactivity

Sequence: QVQLVESGGGLVQAGGSLRLSCAASGSIFPVYAMGWYRQAPGKERELVASISTGGSTYYADSVKGRFTISRDNAKNTVYLQMNSLKPEDTAVYYCSATGWAYGYGYGYWGQGTQVTVSS
- polyreactivity (PSR sort gate): low polyreactivity

Sequence: QFQLVESGGGLVQAGGSLRLSCAASGSTFSNYAMGWYRQAPGKERELVAAISSRGGSTYYADSVKGRFTISRDHAKNTVNLQMISLKPEDTAVYYCATYYVYKLYYWGQGTQVTVSS
- polyreactivity (PSR sort gate): high polyreactivity

Sequence: QVQLVESGGGLVQAGGSLRLSCAASGFTFSRNAMGWYIQAPGKERELVAAISQSGGSTYYADSVKGRFTISRDNAKNTVYLQMNSLKPEDTAVYYCAAQSFAQYGWRYGYWGQGTQVTVSS
- polyreactivity (PSR sort gate): high polyreactivity

Sequence: QVQLVESGGGLVQAGGSLRLSCAASGRIFRGYAMGWYRQAPGKERELVAAISSGVSTNYADSVKGRFTISRDNAKNTVYLQKNSLKPVDTAVYYCAAYFYSPYGTAGKYRRRYNYWGQGTQVTVSS
- polyreactivity (PSR sort gate): high polyreactivity

Sequence: QVQVVESGGGLVQAGGSIRLSCAASGSILSRYAMGWYRQAPGKERELFAAITSSGGTTYYADSVKGRFTISRDTAKNTVYLQMNSLKPEDTAVYYCADHGSRYGYGDFYYWGQGTQVTVSS
- polyreactivity (PSR sort gate): high polyreactivity

Sequence: QVQLVESGGGLVKAGGSLRLRCAASGSIFRYYVMGWYRQAPGKERELVAAISGGSTYYADSVKGRFTISRDNAKNTVYLQLNSLKPEDTAVYYSAARGKRRSGGENYAYGYWGQGTQVTVSS
- polyreactivity (PSR sort gate): high polyreactivity

Sequence: QVQLVESGGGLVQAGGSLRLSCAASGRTFSVNAMGWYRQAPGKERELVAAISWSTGSTYYADSVKGRFTISRDNAKNTVYLQMNSLKPEDTAVYYCAKLYEYRRSRYRTYGYWGQGTQVTVSS
- polyreactivity (PSR sort gate): high polyreactivity

Sequence: QVHLVESGGGLVQAGGSLRLSCAASGFIFGYNARGWYRQAPAKERELVAAINWSGGRTYYADSVKGRFTISRDIAKNTVYLQMNSLKPEVTAVSYCNADGSRRYNYWGQGSQVTVSS
- polyreactivity (PSR sort gate): low polyreactivity

Sequence: QVQLVESGGGLVQAGGSLRLSCAASGRILPSNAMGWYRQAPGKERELVAGITSGGSTDYADSVKGRFTISRDNAKNTVYLQMNSLKPEDTAVYYCAAHPAYRDSWGEYDYWGQGTQVTVSS
- polyreactivity (PSR sort gate): low polyreactivity

Sequence: QVQLVESGGGLVQAGGSLRLSCASSGRTIDGYAMGWYRQAPGKERELVATITWSGDSTYYADSVKGRFTISRDNAKNTVYLKMNSLKPEDTSVYYCAADSYYAYPYGYGYWGQGTQVTVSS
- polyreactivity (PSR sort gate): high polyreactivity

Sequence: QVQLVESGGGLVQAGGSLRLSCAASGLTLSGYAMGWYRQAPGKERELVAAISSTGGSTYYADSVKGRFTISRDNAKNTVYLQMNSLKPEDTAVYYCAKGYSPTRVRLRYPRYDTYNHWGQGTQVTVSS
- polyreactivity (PSR sort gate): high polyreactivity

Sequence: QVQLVESGGGLVQAGGSLRLSCAASGSTFPRNAMGWYRQAPGKERELVATITSSGGGTYYADSVKGRFTISRDNAKNTVYLQMNSLKPEDTAVYYCNAAGPAGDAFDYWGQGTQVTVSS
- polyreactivity (PSR sort gate): low polyreactivity

Sequence: QVQLVESGGGLVQAGGSLRLSCAASGSTYRYTMGWYRQAPGKERELVAAITGSAGRTYYADSVKGRFTISRDNAKNTVYLQMNSLKPEDTAVYYCNKDRPRKFWDYYYWGQGTQVTVSS
- polyreactivity (PSR sort gate): high polyreactivity

Sequence: QVQLVESGGGLVQAGGSLRLSCAASGSIFVGYAMGWYRQAPGKERELVAAISRSGGTTYYADSVKGRFTISRDTAKNTVYLQMNSLKPEDTAVYYCAAERWAYYRSGLWWPYDYWGQGTQVTVSS
- polyreactivity (PSR sort gate): high polyreactivity

Sequence: QVQLVESGGGLVQAGGSLRLSCSASGFIFWYYAMGWYRQAPGKERELVAAISSGGSTNYADSVKGRFAISRDNAKNTVYLQLNSLIPVDTAVYYCATSSIWGSARVRWVTYYYWGQGTQVTVSS
- polyreactivity (PSR sort gate): low polyreactivity

Sequence: QVQLEESGGGLVQAGGSLRLICAASGIIFYVNAMGWYRQAPGKERELVAAITFGGDSTYYADSVKGRFTISRDNAKNTVYLQMNSLKPEDTAVYYCATDGDPAYPEMEYWGQGTQVTVSS
- polyreactivity (PSR sort gate): low polyreactivity

Sequence: QVQLVESGGGLDQAGGSLRLSCAASGSTFRYSVMGWSRQAPGKERELVAGISYRGGTTYYADSVKGRFTISRDNAKNTVYLQMNSLKPEDTAVYYCAADSTPYVLSGNYDYWGQGTQVTVSS
- polyreactivity (PSR sort gate): low polyreactivity

— the nanobody polyreactivity screen of Harvey et al. (2022)
